Data taken from the DeepSol protein solubility set.

Assay: soluble on expression in E. coli; label from the status in PepcDB or PDB records

| Sequence | soluble on expression in E. coli |
| --- | --- |
| MEDLLPTLPSLDHRDALPNALASPVLPAGQSDAQLVRTWLDTKYAAGLGIRASTRAQYALEAHRLLWYAHALGRPLASWQVADANGYLAFLADPPAHAVGDGRVRQDSPAWRPLRGPLSEASRRQTATIVGGLFEWLVGVEALRVNPFQAVPRARSARGPGSQRRFLEAEQLAAVFDAVEARPAPTLWAQLHKARDRLLLALLFHTGLRASEVTALTWPDFERQRGRHGDFWTVRIREAKGGSDQLVPCDNVMAELARFRQLVGLSPEPRATDTMAVVPAMAGGRQRLAPLTDTLALQRRLSRPVRTRQGLYTIVRQVFEAAAVRLEASGYAEGAANLRAASTHWLRHSHATHLLRAGVPVTDVQRTLRHRDINTTRRYTHEALEDVARSIGGKLPAVLEHHHHHH | not soluble |
| MEDNIRIGKIILNLSNKISRQLNKEASAFGLTGVQAKLIGFIHHRSSTQDIFQKDIEEEFDIRRSSVTSALQLMEKKGYIKRVSVSDDARLKKIVLTEKGLELDKKVYDAIIKLENSLINEFDNDELHVLIDSLDRISKKIVDLEHHHHHH | soluble |
| MEEAPFYRDTWVEVDLDAIYNNVTHIKEFIPSDVEIFAVVKGNAYGHDYVPVAKIALEAGATRLAVAFLDEALVLRRAGITAPILVLGPSPPRDINVAAENDVALTVFQKEWVDEAIKLWDGSSTMKYHINFDSGMGRIGIRERKELKGFLKSLEGAPFLELEGVYTHFATADEVETSYFDKQYNTFLEQLSWLKEFGVDPKFVHTANSAATLRFQGITFNAVRIGIAMYGLSPSVEIRPFLPFKLEPALSLHTKVAHIKQVIKGDGISYNVTYRTKTEEWIATVAIGYADGWLRRLQGFEVLVNGKRVPIVGRVTMDQFMIHLPCEVPLGTKVTLIGRQGDEYISATEVAEYSGTINYEIITTISFRVPRIFIRNGKVVEVINYLNDILEENLYFQ | soluble |
| MEEEGSPDIIIVGAGISGLSTAVGLHRLGIRSMVLESSETLRATGFAFTTWFNAWKAMEALGVSQHIRSLHDRLEGWVVGTISAGTPPTEMLFPESEEYESRCVQRKLLLEALAGELPEETIRFSSKVVHIELSGCYKKVHLSDGTILKTKVLVGCDGVYSVVGKWLGFKNPATTARLAIRGLTHFPEGHGFGKRFFQFYGDGVRSGFIPCDHNTVYWFLTHTSTDIDEETNSEILKEFVLNKIKDLPENIKNVVETTDLDSMVMSQLKYRPPWELLWSNITKDNVCVAGDALHPMTPDIGQGGCSAMEDGVILARCLGEAIKAKSLKGETEENEEEGYKRIEEGLKKYAGERKWRSIDLITTAYTVGFIQQSRGKWMNMFRDRFLSSYLSRMLLKKSHFDCGSLVP | soluble |
| MEEEVSRKTVAISVQAAKLTGRVLFMACQKFLAGVQKHNRDALTPHGRQTVKQLMGHTGQSNSIQLKGDARLFDRVARKFNVDYAFHKVGPKDYLLFFKAGQADAITAAFSEYTKRVMARQNDKPSIRRGLRQAMGRVKPRQKEREKTREAVQER | not soluble |
| MEEMRDNDVPVQQALFDMGPDEEVGYRVPIACQVAGITYRQLDYWARTKLVEPTIRTARGSGSQRLYSFKDILVLKIVKRLLDTGISLQNIRLAVDKLRNRGVDDLAEITLVSDGTTVYECRSNEEVIDLLGGGQGVFGIAVPGIVRELTGTISSFPSEKISDFLSNSPAAGGIDELAARRLRKTS | not soluble |
| MEEWIQYARDMAKAEKELEIELWVIISFYRTTEQGGKVLLFRYDLPRKVADKYDWVVRWRRARLTCQYPKGNVTHTYCLYDRHSGEDYSFGSCLSSLAAAKAQVTRMERRIREYTTWQKQNNLFFDEQTDEMLQKAVTKLKIKKENVQEAERRLQRKAEKHQREMRK | not soluble |
| MEEWVREQYGMRVERLERSGRHAAFWHRQERFLLVPADGQSEAEMEERQQMSRYLRAKGVDGVGELVKTTSGTYIASYNGQPLALVRAPLPASRFRSLGRELAVMHECGRTCPWPIVACRRIGQWRELWAKRIDQMEAFWSSKLASGPSSLFDRLFIESFPYYLGLAENAVQYVADTEIDEEPGRIDYAAFCHERLPEAKWVGGGEAKLPTDWVYDHCARDLAEWVRHLYEKSGLGCQRAVRQFFQEYEHAAPLSPFAWRLVYARLLFPLSYFECVEAYYIAVDESERTRREGELRRLLDRSHEYERFLASFAKIAGISNRIRLPAVEWLPPA | not soluble |
| MEFIGDTRIVIINPLGAKKICRLTFEQIKVIYQEVKTHFENYRIIFTGLPQDLLTIPILEIETLPFDEFIYTVALTKYSDFVISVDTALVHIAAAYHKPTLAFYPNSRTPEYPSHLIWSPNHHKSIQIVSPTYTVKDIDTETLTNSVKRLSCIDKKLEHHHHHH | soluble |
| MEFIPPKRMLELIKHYSTTFKNWYSVMLGIYLHRERIKCTLRNGQTLYLTPNEAVLLAGLRIIELDCNTVKFSFNGREITLRGWRLSDPGDSFSDYWRINVKGKRVLDIGAGVGDSSIYFSTMGAKEVVAVEIDKKKIELMRENLRTNGINNVIVVDKGVGTVDNENFISWERLIKDYGPFDDAKIDCDGCERLISPFIKEIPELLIEWDSDYKDVVKNLSKNGYKIRVEHTLKNLGFIYAKRE | soluble |
| MEFNLHAVSSEEKERDFDVVIVGAGAAGFSAAVYAARSGFSVAILDKAVAGGLTAEAPLVENYLGFKSIVGSELAKLFADHAANYAKIREGVEVRSIKKTQGGFDIETNDDTYHAKYVIITTGTTHKHLGVKGESEYFGKGTSYCSTCDGYLFKGKRVVTIGGGNSGAIAAISMSEYVKNVTIIEYMPKYMCENAYVQEIKKRNIPYIMNAQVTEIVGDGKKVTGVKYKDRTTGEEKLIETDGVFIYVGLIPQTSFLKDSGVKLDERGYIVVDSRQRTSVPGVYAAGDVTSGNFAQIASAVGDGCKAALSLYSDSISKK | soluble |
| MEFYNSTNEIPEEMLKGIDLTYPQLTYLPETGILYDNTYNEKTVPIISGGGSGHEPAHVGYVGSGMLAAAVTGPLFIPPKSKNILKAIRQVNSGKGVFVIIKNFEADLKEFNEAIKEARTEGIDVRYIVSHDDISVNAYNFHKRHRGVAGTILLHKILGAFAKEGGSIDEIEQLALSLSPEIYTLGVALAPVHFPHQKTSFVLAEDEVSFGIGIHGEPGYRVEKFEGSERIAIELVNKLKAEINWQKKANKNYILLVNGLGSTTLMELYSFQYDVMRLLELEGLSVKFCKVGNLMTSCDMSGISLTLCSVKDPKWLDYLNVPTGAFAWLEHHHHHH | soluble |
| MEGEAELWNFLERHLRSIYEGDWATYEATTHEELSLYEWFVTPHRLDGLPFHRFMVEKNWATRGRAYRLDLLEKRLQRYGDVAIFSYTLLLTVEEEAGLRHRAVNESRVAVRFPEGWKVVHVHKSPAG | soluble |
| MEGIDMLDIKLIRENPELVKNDLIKRGELEKVKWVDEILKLDTEWRTKLKEINRLRHERNKIAVEIGKRRKKGEPVDELLAKSREIVKRIGELENEVEELKKKIDYYLWRLPNITHPSVPVGKDENDNVPIRFWGKARVWKGHLERFLEQSQGKMEYEILEWKPKLHVDLLEILGGADFARAAKVSGSRFYYLLNEIVILDLALIRFALDRLIEKGFTPVIPPYMVRRFVEEGSTSFEDFEDVIYKVEDEDLYLIPTAEHPLAGMHANEILDGKDLPLLYVGVSPCFRKEAGTAGKDTKGIFRVHQFHKVEQFVYSRPEESWEWHEKIIRNAEELFQELEIPYRVVNICTGDLGYVAAKKYDIEAWMPGQGKFREVVSASNCTDWQARRLNIRFRDRTDEKPRYVHTLNSTAIATSRAIVAILENHQEEDGTVRIPKVLWKYTGFKEIVPVEKKERCCAT | soluble |
| MEGQRWLPLEANPEVTNQFLKQLGLHPNWQFVDVYGMDPELLSMVPRPVCAVLLLFPITEKYEVFRTEEEEKIKSQGQDVTSSVYFMKQTISNACGTIGLIHAIANNKDKMHFESGSTLKKFLEESVSMSPEERARYLENYDAIRVTHETSAHEGQTEAPSIDEKVDLHFIALVHVDGHLYELDGRKPFPINHGETSDETLLEDAIEVCKKFMERDPDELRFNAIALSAA | soluble |
| MEGSQQTITSKQLVRMLKDASRGSKGKGSGEMKFCFLIGAGASISSGIPSGAKLAWDWLQQIKEDCDGEDFEDWKIEIKMPDQHIEERVGEFYPEIYEKRFGHAPETGYDYIRGLMEGREPSLGYLILANIMVREKHNVVITTNFDNLLEDAIRTYTKEKPFIAGHEALADYVPKRSDRPIILKLHRDLFLQPFSDQLNTDILQAAWESILGKFLSDYHLIVLGYGGNDGSLMNYLLKLKNRKPIYWCVRNTDKATSKSLWNTLSPKAKRLLKNDGYLVPIDDFDRFMYDCYAALGYKFLEGIEKIEKPKSIHEILKPNYARIESIQTQLRQLSQTEEELSKESFQSIKSFLPDSWMWILKANQEKDIDKKDKIYREGIAKYPQDANLLGDYADFLCDICHD | not soluble |
